Molecular target: T1, HA epitope-tagged PI3Kγ (pCMV-PI3 Kp110γ wild type) (Homo sapiens (Human), UniProt P48736 1-1102)
T1 construct: Full-length wild type with HA tag, expressed in transfected NIH-3T3 cells; also called HA-PI3Kγ
Assay: co-immunoprecipitation from cytosolic extracts of transfected NIH-3T3 cells

T1 sequence (P48736 other isoform, or with tags, fused parts or gaps limits assumed): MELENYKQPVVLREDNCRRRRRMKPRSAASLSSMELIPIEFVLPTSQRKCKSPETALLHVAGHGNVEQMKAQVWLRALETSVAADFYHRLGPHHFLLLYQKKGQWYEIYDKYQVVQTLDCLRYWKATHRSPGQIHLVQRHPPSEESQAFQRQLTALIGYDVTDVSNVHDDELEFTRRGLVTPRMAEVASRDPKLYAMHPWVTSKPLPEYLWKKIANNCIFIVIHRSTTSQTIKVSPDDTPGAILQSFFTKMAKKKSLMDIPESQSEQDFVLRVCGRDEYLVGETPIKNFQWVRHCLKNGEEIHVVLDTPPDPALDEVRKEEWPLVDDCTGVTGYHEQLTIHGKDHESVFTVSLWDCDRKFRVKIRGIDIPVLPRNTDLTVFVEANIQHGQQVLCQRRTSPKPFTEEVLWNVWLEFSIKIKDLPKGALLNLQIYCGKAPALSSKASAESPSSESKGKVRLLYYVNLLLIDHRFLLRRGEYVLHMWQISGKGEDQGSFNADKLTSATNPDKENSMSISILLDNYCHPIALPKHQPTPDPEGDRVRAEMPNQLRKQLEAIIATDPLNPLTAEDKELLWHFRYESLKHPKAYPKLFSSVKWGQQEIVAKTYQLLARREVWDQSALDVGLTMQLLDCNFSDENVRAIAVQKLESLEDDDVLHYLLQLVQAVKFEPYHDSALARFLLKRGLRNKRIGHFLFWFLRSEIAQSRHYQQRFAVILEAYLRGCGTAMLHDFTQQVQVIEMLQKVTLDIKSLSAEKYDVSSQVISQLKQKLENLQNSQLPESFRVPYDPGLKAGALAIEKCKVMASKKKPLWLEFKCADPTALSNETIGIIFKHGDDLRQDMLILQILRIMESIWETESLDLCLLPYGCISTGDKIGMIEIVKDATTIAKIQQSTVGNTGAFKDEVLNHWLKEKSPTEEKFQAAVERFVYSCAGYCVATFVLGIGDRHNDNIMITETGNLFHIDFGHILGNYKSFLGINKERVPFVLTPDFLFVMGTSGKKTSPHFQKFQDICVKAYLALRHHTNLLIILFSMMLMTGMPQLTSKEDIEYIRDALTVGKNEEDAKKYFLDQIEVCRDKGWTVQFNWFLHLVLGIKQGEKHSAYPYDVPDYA

binding result: binds
B1: β-adrenergic receptor kinase 1 (βARK1), bovine cDNA expressed in transfected cells (enzyme, UniProt P21146 1-689, looked up)
chain: MADLEAVLADVSYLMAMEKSKATPAARASKKILLPEPSIRSVMQKYLEDRGEVTFEKIFSQKLGYLLFRDFCLKHLEEAKPLVEFYEEIKKYEKLETEEERLVCSREIFDTYIMKELLACSHPFSKSAIEHVQGHLVKKQVPPDLFQPYIEEICQNLRGDVFQKFIESDKFTRFCQWKNVELNIHLTMNDFSVHRIIGRGGFGEVYGCRKADTGKMYAMKCLDKKRIKMKQGETLALNERIMLSLVSTGDCPFIVCMSYAFHTPDKLSFILDLMNGGDLHYHLSQHGVFSEADMRFYAAEIILGLEHMHNRFVVYRDLKPANILLDEHGHVRISDLGLACDFSKKKPHASVGTHGYMAPEVLQKGVAYDSSADWFSLGCMLFKLLRGHSPFRQHKTKDKHEIDRMTLTMAVELPDSFSPELRSLLEGLLQRDVNRRLGCLGRGAQEVKESPFFRSLDWQMVFLQKYPPPLIPPRGEVNAADAFDIGSFDEEDTKGIKLLDSDQELYRNFPLTISERWQQEVAETVFDTINAETDRLEARKKTKNKQLGHEEDYALGKDCIMHGYMSKMGNPFLTQWQRRYFYLFPNRLEWRGEGEAPQSLLTMEEIQSVEETQIKERKCLLLKIRGGKQFVLQCDSDPELVQWKKELRDAYREAQQLVQRVPKMKNKPRSPVVELSKVPLIQRGSANGL
notes: Over-expressed in NIH-3T3 or HEK 293 cells and immunoprecipitated with a βARK1 monoclonal antibody; also called GRK2; β3ARK1

Source: patent publication US20060026702A1 (DUKE UNIVERSITY, published 2006)
